In article PMC9646525, “Cryo-EM structure of the SEA complex” (Nature, 2022):

Tests used:
Sea2 = biological target: T1, Sea2 (S. cerevisiae (endogenous in yeast …, UniProt Q08281 1-1341)); test: co-IP; Sea4-TAP captured from cleared yeast lysate on IgG-coupled Dynabeads, washed, eluted with TEV protease, Coomassie-stained SDS-PAGE; 4 °C, 20 mM HEPES-NaOH pH 7.4, 300 mM NaCl, 5 mM CHAPS, 10% glycerol; wild-type, ΔNpr3, Npr2^R84A and Sea1^R943A strains; conditions: partners not purified
T1 construct: Sea2, S. cerevisiae, endogenous subunit of the SEAC (SEACAT, core); Native protein of the purified complex; two copies in the SEAC; source: endogenous, yeast cells expressing Sea4-TAP; in lysate and co-purified with Sea4-TAP (IgG Dynabeads, TEV elution)
T1 sequence (looked up): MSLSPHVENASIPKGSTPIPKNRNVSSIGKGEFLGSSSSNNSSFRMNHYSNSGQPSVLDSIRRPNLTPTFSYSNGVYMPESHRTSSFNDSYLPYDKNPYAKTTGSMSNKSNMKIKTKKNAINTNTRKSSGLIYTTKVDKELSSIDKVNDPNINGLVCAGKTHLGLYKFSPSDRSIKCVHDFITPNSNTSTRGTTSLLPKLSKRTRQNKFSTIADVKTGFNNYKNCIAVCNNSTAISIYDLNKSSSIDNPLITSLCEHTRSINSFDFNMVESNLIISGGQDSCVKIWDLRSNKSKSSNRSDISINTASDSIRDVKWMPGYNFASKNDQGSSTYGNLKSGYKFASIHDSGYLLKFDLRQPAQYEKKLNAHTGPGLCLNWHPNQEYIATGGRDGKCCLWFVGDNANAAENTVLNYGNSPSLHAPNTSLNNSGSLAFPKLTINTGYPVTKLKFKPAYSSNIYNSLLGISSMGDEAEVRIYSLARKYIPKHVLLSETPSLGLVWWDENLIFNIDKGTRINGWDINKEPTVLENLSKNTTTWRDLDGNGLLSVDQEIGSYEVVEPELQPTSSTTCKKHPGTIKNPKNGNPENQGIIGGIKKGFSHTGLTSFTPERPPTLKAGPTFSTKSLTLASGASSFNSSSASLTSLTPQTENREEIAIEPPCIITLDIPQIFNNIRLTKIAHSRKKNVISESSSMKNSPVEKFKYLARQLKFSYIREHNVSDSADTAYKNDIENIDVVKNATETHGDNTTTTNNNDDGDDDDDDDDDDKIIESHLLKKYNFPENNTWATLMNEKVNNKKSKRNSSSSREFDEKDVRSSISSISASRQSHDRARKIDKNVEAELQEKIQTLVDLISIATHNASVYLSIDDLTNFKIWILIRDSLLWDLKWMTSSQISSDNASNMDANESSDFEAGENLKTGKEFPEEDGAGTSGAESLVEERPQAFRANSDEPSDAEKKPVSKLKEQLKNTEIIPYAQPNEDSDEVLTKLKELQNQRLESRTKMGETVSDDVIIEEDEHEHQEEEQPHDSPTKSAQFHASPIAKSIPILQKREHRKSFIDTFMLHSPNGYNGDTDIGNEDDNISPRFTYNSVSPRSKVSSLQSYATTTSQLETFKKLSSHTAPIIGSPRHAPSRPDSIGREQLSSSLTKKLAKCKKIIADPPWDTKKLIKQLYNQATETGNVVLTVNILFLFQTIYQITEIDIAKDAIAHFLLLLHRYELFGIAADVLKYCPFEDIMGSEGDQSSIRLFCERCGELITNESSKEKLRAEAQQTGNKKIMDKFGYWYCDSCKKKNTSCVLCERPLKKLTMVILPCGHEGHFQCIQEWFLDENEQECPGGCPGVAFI

Sea3 = biological target: T2, Sea3 (S. cerevisiae (endogenous in yeast …, UniProt Q03897 1-1148)); test: as above; conditions: partners not purified
T2 construct: Sea3, S. cerevisiae, endogenous subunit of the SEAC; Sea3^SIP (Sea3^Nter) lies in the wing, Sea3^SAP (Sea3^Cter) in the core; Native protein of the purified complex; two copies in the SEAC; source: endogenous, yeast cells expressing Sea4-TAP; in lysate and co-purified with Sea4-TAP (IgG Dynabeads, TEV elution)
T2 sequence (looked up): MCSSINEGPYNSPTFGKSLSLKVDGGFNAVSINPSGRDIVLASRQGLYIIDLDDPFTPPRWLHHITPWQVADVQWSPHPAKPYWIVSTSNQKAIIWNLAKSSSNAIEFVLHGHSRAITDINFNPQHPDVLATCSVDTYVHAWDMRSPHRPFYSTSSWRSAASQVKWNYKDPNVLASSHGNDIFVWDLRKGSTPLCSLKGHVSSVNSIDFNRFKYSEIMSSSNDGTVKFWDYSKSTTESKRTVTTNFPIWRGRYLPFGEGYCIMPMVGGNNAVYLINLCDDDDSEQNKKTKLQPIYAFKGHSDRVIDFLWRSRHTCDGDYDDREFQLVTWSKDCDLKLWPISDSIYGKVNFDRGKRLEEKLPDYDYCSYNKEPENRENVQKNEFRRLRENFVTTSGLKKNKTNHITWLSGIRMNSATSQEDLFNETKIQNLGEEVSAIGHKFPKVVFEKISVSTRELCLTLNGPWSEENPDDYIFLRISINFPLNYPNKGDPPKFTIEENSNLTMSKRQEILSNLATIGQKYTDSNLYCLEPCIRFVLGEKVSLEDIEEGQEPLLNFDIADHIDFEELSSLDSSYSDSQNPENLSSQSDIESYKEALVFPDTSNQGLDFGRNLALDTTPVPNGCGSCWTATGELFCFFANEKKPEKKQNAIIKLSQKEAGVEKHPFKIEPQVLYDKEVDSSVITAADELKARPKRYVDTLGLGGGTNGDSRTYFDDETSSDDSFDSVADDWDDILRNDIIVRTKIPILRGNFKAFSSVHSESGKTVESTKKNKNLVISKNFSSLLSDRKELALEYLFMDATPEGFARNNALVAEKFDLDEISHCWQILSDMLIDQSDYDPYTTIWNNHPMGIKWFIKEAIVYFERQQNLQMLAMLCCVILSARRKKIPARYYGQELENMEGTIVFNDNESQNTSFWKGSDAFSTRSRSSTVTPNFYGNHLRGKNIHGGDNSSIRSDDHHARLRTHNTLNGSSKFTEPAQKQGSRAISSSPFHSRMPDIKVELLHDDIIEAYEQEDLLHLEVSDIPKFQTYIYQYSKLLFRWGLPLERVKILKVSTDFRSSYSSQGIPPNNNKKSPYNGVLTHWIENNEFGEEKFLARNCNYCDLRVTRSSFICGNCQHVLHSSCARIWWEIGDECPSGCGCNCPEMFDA

B1: Sea4-TAP (natural protein, UniProt P38164 1-1038, looked up)
chain: MGLIKKVTHWSYDNLIDYLSVNPTRDEVTHYKVDPENESDESIIKLHTVKDFGSITCLDYSESEIGMIGVGEKNGYLRIFNISGQNSSSPASHAPVGLNANNETSMTNASGGKAAQAENIVGSVSNLKDTQGYPVSETNYDIRVRAKKQRCINSLGINTNGLIAMGLDRNKHDSSLQIWDMNYHDDSHETINPMFSYCTNESIVSLKFLNDTSVLAASTKFLKEIDVRSPNPIYQHPTRLTYDIKLNPFNDWQFSTYGDDGTLAIWDRRKLSDQASLGDLNVASPLLTFEKLVGSGAASRKYMNSCFRWSCVRNNEFATLHRGDTIKRWRLGYYCDSNRDIAADDDNEMNIENLFVSSVHDTNTMYDRVATFDYIPRSNNGTSLICMRQSGTIYRMPISEVCSKAILNNRNSLLLSNFENTEIDEIRVNNEHEKSNLENVKTILKNLSFEDLDVSEDYFPSGHDEPNNEIEYSELSEEENEGSNDVLDSKRGFELFWKPEKLLEKDISVIMRTRASLGYGLDPMNTVEMIDSSKNLQNNAYIRNTWRWIAIAKASVDDGTMVSGDLDLGYEGVIGIWNGINGISNQDRYRQETILSDKQLNKEMEKIIKLRRKNRDRNSPIANAAGSPKYVQRRLCLIISGWDLSRSDYEDKYNIIMKNGHYEKAAAWAVFFGDIPKAVEILGSAKKERLRLIATAIAGYLAYKDLPGNNAWRQQCRKMSSELDDPYLRVIFAFIADNDWWDILYEPAISLRERLGVALRFLNDTDLTTFLDRTSSTVIENGELEGLILTGITPNGIDLLQSYVNKTSDVQSAALISIFGSPRYFRDQRVDEWIQTYRDMLKSWELFSMRARFDVLRSKLSRTKTGVLTADIKPRQIYIQCQNCKQNINTPRTSSPSSAVSTSAGNYKNGEAYRRNNADYKKFNTGSSEAQAADEKPRHKYCCPHCGSSFPRCAICLMPLGTSNLPFVINGTQSRDPMQTEDSQDGANRELVSRKLKLNEWFSFCLSCNHGMHAGHAEEWFDRHNVCPTPGCTCQCNK
notes: Sea4, S. cerevisiae, endogenous subunit of the SEAC (SEACAT, core), TAP-tagged; Captured by the TAP tag on IgG beads; the complex was released with TEV protease before SDS-PAGE and cryo-EM; Written 'Sea4-TAP'; Four copies in the SEAC; source: endogenous, yeast cells expressing Sea4-TAP; in lysate, purified on IgG-coupled Dynabeads and eluted with TEV protease
Q: Does B1 bind (Sea2)?
A: Result: binds

Q: Does B1 bind (Sea3)?
A: Result: binds
